In PMC2756588:

T1: Pin3, Q06449
T1 sequence (Q06449 53-122, looked up): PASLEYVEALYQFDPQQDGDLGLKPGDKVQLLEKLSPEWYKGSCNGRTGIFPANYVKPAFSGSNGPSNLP

T2: Bud14, P27637
T2 sequence (P27637 247-328, looked up): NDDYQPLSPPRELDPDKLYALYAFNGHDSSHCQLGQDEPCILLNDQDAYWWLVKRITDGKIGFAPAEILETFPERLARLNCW

T3: Lsb4, P32793
T3 sequence (P32793 402-468, looked up): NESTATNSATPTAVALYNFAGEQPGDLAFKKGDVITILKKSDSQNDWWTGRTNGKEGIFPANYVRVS

T4: Hse1, P38753
T4 sequence (P38753 208-285, looked up): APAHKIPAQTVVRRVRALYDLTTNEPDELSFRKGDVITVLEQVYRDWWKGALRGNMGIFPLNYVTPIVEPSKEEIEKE

T5: Boi1, P38041
T5 sequence (P38041 1-86, looked up): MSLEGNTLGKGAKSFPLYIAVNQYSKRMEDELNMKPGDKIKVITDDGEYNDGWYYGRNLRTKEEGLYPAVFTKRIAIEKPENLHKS

T6: Bzz1-2, P38822
T6 sequence (P38822 568-633, looked up): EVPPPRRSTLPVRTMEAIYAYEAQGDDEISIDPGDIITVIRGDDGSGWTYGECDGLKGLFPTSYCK

T7: Lsb3, P43603
T7 sequence (P43603 385-451, looked up): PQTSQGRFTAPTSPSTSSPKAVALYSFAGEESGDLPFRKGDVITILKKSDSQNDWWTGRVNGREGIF

T8: Nbp2, Q12163
T8 sequence (Q12163 103-180, looked up): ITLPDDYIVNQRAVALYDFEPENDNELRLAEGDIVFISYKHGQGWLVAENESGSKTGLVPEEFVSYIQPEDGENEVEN

T9: Sla1-2, P32790
T9 sequence (P32790 60-140, looked up): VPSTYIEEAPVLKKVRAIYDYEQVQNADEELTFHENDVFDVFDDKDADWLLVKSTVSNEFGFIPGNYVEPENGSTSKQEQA

T10: Bbc1, P47068
T10 sequence (P47068 1-78, looked up): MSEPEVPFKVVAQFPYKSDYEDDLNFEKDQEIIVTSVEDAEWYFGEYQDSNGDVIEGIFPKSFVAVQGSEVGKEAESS

T11: Sla1-3, P32790
T11 sequence (P32790 344-424, looked up): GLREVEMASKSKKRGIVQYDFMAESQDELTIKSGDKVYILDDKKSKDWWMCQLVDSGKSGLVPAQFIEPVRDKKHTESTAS

T12: Cyk3, Q07533
T12 sequence (Q07533 1-83, looked up): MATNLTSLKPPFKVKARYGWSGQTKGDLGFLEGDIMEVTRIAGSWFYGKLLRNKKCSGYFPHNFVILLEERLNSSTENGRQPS

T13: Fus1, P11710
T13 sequence (P11710 432-512, looked up): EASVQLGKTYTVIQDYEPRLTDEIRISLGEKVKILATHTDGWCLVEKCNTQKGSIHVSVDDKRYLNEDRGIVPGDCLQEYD

T14: Hof1, Q05080
T14 sequence (Q05080 590-669, looked up): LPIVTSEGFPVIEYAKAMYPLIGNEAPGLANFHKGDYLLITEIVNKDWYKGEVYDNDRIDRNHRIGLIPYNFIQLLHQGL

T15: Cdc25, P04821
T15 sequence (P04821 50-136, looked up): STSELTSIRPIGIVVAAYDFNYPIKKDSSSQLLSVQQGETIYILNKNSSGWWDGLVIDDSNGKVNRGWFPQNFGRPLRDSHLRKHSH

T16: Lsb1, P53281
T16 sequence (P53281 45-122, looked up): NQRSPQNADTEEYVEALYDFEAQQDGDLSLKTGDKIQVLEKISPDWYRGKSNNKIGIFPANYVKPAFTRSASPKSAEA

T17: Boi2, P39969
T17 sequence (P39969 32-116, looked up): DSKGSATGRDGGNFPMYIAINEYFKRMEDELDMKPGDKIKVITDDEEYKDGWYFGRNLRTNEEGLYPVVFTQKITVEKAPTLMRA

T18: Myo5, Q04439
T18 sequence (Q04439 1072-1160, looked up): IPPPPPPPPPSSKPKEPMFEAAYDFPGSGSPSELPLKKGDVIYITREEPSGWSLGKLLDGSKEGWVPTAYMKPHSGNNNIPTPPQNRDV

T19: Pex13, P80667
T19 sequence (P80667 295-386, looked up): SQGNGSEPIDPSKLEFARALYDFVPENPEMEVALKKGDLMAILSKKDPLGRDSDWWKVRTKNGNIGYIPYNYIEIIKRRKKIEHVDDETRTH

T20: Bzz1-1, P38822
T20 sequence (P38822 478-572, looked up): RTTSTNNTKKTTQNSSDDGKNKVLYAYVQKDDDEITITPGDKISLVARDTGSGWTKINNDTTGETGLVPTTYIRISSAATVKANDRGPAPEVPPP

T21: Abp1, P15891
T21 sequence (P15891 535-592, looked up): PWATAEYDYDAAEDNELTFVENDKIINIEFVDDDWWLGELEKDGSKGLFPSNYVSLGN

B1: unnamed (peptide)
chain: YRRKSIPFAPHQITA
B2: unnamed (peptide)
chain: LSKRLPLRFPEHTSS
B3: unnamed (peptide)
chain: RSRRSSFAYPQQVAI
B4: unnamed (peptide)
chain: RVRKTHVPASKRPSG
B5: unnamed (peptide)
chain: TKIRRRPQQPLTDFT
B6: unnamed (peptide)
chain: PSRRDSLSIPRAVDA

Columns and labels:
Test in all cases: SPOT array
Pin3, Q06449 = molecular target: T1, Pin3, Q06449; details: median of control spots 2171
GST = details: median of control spots 978
Bud14, P27637 = molecular target: T2, Bud14, P27637; details: median of control spots 956
Bem1-1, P29366 = details: median of control spots 4282
Lsb4, P32793 = molecular target: T3, Lsb4, P32793; details: median of control spots 397
Rvs167, P39743 = details: median of control spots 2707
Hse1, P38753 = molecular target: T4, Hse1, P38753; details: median of control spots 1727
Boi1, P38041 = molecular target: T5, Boi1, P38041; details: median of control spots 1162
Bzz1-2, P38822 = molecular target: T6, Bzz1-2, P38822; details: median of control spots 4538
Lsb3, P43603 = molecular target: T7, Lsb3, P43603; details: median of control spots 406
Nbp2, Q12163 = molecular target: T8, Nbp2, Q12163; details: median of control spots 357
Sla1-2, P32790 = molecular target: T9, Sla1-2, P32790; details: median of control spots 712
Bbc1, P47068 = molecular target: T10, Bbc1, P47068; details: median of control spots 796
Sla1-3, P32790 = molecular target: T11, Sla1-3, P32790; details: median of control spots 5475
Bem1-2, P29366 = details: median of control spots 4347
Cyk3, Q07533 = molecular target: T12, Cyk3, Q07533; details: median of control spots 1451
Fus1, P11710 = molecular target: T13, Fus1, P11710; details: median of control spots 1200
Hof1, Q05080 = molecular target: T14, Hof1, Q05080; details: median of control spots 4086
Sho1, P40073 = details: median of control spots 1148
Cdc25, P04821 = molecular target: T15, Cdc25, P04821; details: median of control spots 969
Lsb1, P53281 = molecular target: T16, Lsb1, P53281; details: median of control spots 388
Boi2, P39969 = molecular target: T17, Boi2, P39969; details: median of control spots 1161
Myo5, Q04439 = molecular target: T18, Myo5, Q04439; details: median of control spots 471
Pex13, P80667 = molecular target: T19, Pex13, P80667; details: median of control spots 1341
Myo3, P36006 = details: median of control spots 468
Bzz1-1, P38822 = molecular target: T20, Bzz1-1, P38822; details: median of control spots 4446
Abp1, P15891 = molecular target: T21, Abp1, P15891; details: median of control spots 935

Rvs167, P39743, sequence (P39743 419-482): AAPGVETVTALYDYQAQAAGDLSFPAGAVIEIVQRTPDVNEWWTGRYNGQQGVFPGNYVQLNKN
Bem1-1, P29366, sequence (P29366 55-141): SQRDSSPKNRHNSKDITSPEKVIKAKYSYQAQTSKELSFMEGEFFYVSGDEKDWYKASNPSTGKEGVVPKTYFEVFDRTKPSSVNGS
Bem1-2, P29366, sequence (P29366 139-227): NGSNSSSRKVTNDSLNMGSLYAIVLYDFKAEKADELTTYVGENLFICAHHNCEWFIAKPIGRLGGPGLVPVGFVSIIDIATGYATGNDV
Sho1, P40073, sequence (P40073 287-367): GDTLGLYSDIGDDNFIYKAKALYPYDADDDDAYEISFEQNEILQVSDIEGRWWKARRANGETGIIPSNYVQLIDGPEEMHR

Row | Binder | SPOT intensity (Pin3, Q06449) | SPOT intensity (GST) | SPOT intensity (Bud14, P27637) | SPOT intensity (Bem1-1, P29366) | SPOT intensity (Lsb4, P32793) | SPOT intensity (Rvs167, P39743) | SPOT intensity (Hse1, P38753) | SPOT intensity (Boi1, P38041) | SPOT intensity (Bzz1-2, P38822) | SPOT intensity (Lsb3, P43603) | SPOT intensity (Nbp2, Q12163) | SPOT intensity (Sla1-2, P32790) | SPOT intensity (Bbc1, P47068) | SPOT intensity (Sla1-3, P32790) | SPOT intensity (Bem1-2, P29366) | SPOT intensity (Cyk3, Q07533) | SPOT intensity (Fus1, P11710) | SPOT intensity (Hof1, Q05080) | SPOT intensity (Sho1, P40073) | SPOT intensity (Cdc25, P04821) | also measured
1 | B1 | 9 | 1 | 0 | 0 | 2 | 0 | 9 | 0 | 5 | 0 | 0 | 0 | 2 | 28 | 3 | 0 | 2 | 5 | 17 | 2 | SPOT intensity (Lsb1, P53281): 8; SPOT intensity (Boi2, P39969): 1; SPOT intensity (Myo5, Q04439): 0; SPOT intensity (Pex13, P80667): 10; SPOT intensity (Myo3, P36006): 0; SPOT intensity (Bzz1-1, P38822): 0; SPOT intensity (Abp1, P15891): 12
2 | B2 | 0 | 0 | 1 | 0 | 4 | 0 | 101 | 0 | 7 | 0 | 2 | 0 | 2 | 24 | 4 | 0 | 1 | 25 | 29 | 3 | SPOT intensity (Lsb1, P53281): 1; SPOT intensity (Boi2, P39969): 0; SPOT intensity (Myo5, Q04439): 0; SPOT intensity (Pex13, P80667): 3; SPOT intensity (Myo3, P36006): 0; SPOT intensity (Bzz1-1, P38822): 0; SPOT intensity (Abp1, P15891): 22
3 | B3 | 8 | 0 | 3 | 0 | 0 | 2 | 5 | 1 | 1 | 2 | 0 | 1 | 24 | 29 | 0 | 0 | 26 | 4 | 64 | 10 | SPOT intensity (Lsb1, P53281): 0; SPOT intensity (Boi2, P39969): 0; SPOT intensity (Myo5, Q04439): 0; SPOT intensity (Pex13, P80667): 4; SPOT intensity (Myo3, P36006): 8; SPOT intensity (Bzz1-1, P38822): 1; SPOT intensity (Abp1, P15891): 28
4 | B4 | 1 | 2 | 5 | 0 | 1 | 0 | 2 | 1 | 0 | 0 | 0 | 1 | 11 | 6 | 0 | 3 | 5 | 0 | 124 | 0 | SPOT intensity (Lsb1, P53281): 0; SPOT intensity (Boi2, P39969): 1; SPOT intensity (Myo5, Q04439): 0; SPOT intensity (Pex13, P80667): 0; SPOT intensity (Myo3, P36006): 1; SPOT intensity (Bzz1-1, P38822): 0; SPOT intensity (Abp1, P15891): 64
5 | B5 | 11 | 2 | 24 | 0 | 8 | 1 | 1 | 1 | 6 | 4 | 2 | 1 | 190 | 20 | 1 | 1 | 6 | 0 | 120 | 27 | SPOT intensity (Lsb1, P53281): 30; SPOT intensity (Boi2, P39969): 1; SPOT intensity (Myo5, Q04439): 2; SPOT intensity (Pex13, P80667): 3; SPOT intensity (Myo3, P36006): 14; SPOT intensity (Bzz1-1, P38822): 0; SPOT intensity (Abp1, P15891): 121
6 | B6 | 11 | 2 | 0 | 0 | 0 | 0 | 0 | 0 | 0 | 1 | 0 | 0 | 0 | 0 | 0 | 1 | 0 | 0 | 13 | 0 | SPOT intensity (Lsb1, P53281): 1; SPOT intensity (Boi2, P39969): 1; SPOT intensity (Myo5, Q04439): 2; SPOT intensity (Pex13, P80667): 1; SPOT intensity (Myo3, P36006): 3; SPOT intensity (Bzz1-1, P38822): 0; SPOT intensity (Abp1, P15891): 8
